Data from paper PMC8511952.
pKd: −log10 of the molar value.

Experiments:
Assay in all cases: fluorescence anisotropy
Settings in all cases: unmodified in vitro transcript; FA: 5 nM labeled tRNA, 25 mM Tris-HCl pH 8, 50 mM NaCl, 1 mM MgCl2, room temperature, 30 min
[1] = system: MBP-ERS2.5W P14R (Homo sapiens)
[2] = system: MBP-ERS2.5W E205G (Homo sapiens)
[3] = system: MBP-ERSRC E205G (Homo sapiens)

tRNAGlu(TTC)
pKd [1]: 7.03
pKd [2]: 7.27
pKd [3]: 6.56
